According to patent publication US20240207421A1, “NERVE TARGETING PEPTIDES AND METHODS OF USE” (ALUME BIOSCIENCES, INC., priority 2020, published 2024):

These substances were tested against Human MPZ (human) (UniProt P25189) (assay: phage display, NGS count). Conditions: not given.
Human MPZ (human), sequence (P25189 30-153 limits assumed): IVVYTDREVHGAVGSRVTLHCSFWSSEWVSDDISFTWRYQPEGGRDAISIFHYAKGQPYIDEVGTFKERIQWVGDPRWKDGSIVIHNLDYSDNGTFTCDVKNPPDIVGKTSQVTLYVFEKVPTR

Count	Substance
44	KLPTLSV (peptide)
45	YMKHSPG (peptide)
38	SAHSVVE (peptide)
38	HNQLLYT (peptide)
46	YPQARTS (peptide)
37	FMSDVDH (peptide)
40	GGSKVWG (peptide)
46	NMSHSNR (peptide)
42	SGHGAFR (peptide)
41	WTSVATA (peptide)
38	NTASMTT (peptide)
42	ALPISYL (peptide)
37	THSTDLS (peptide)
39	LVNPFPE (peptide)
43	WMTNLDP (peptide)
46	HLDSRRH (peptide)
38	LWAKRDA (peptide)
41	FRVTQTA (peptide)
43	LSPPRIM (peptide)
37	LVLQTTP (peptide)
40	VVPLKWI (peptide)
41	WPRPIQI (peptide)
38	YSSLTSN (peptide)
40	TLLHYSA (peptide)
39	FSPRDVS (peptide)
41	SETESYM (peptide)

Count	Substance
42	NASVPPK (peptide)
45	LPAESHW (peptide)
37	YAPWRVF (peptide)
46	GPVVSGM (peptide)
38	IEQVGWR (peptide)
37	KQPAMEN (peptide)
39	AWTMRAS (peptide)
38	KTPILAS (peptide)
45	STHEWRT (peptide)
40	KRNLWDI (peptide)
40	FPSYTIS (peptide)
41	MIHTRQT (peptide)
40	DRYLLNQ (peptide)
42	TTLVVTA (peptide)
37	YGQSITE (peptide)
45	TTWPNTA (peptide)
41	FALPAGL (peptide)
46	SVAYVPV (peptide)
40	SPNTNSH (peptide)
41	LPNANNL (peptide)
39	FSTTGRG (peptide)
52	GSWSSGF (peptide)
41	SYLPPFI (peptide)
47	MYHDSVS (peptide)
41	VHTPYRS (peptide)

The next lines start with the substance.

Substance	Count
LVLSNPR (peptide)	46
AMSNLSY (peptide)	45
NPTSEGA (peptide)	37
NPISPRN (peptide)	38
HPLMVPS (peptide)	41
LISPTAR (peptide)	37
VPLAYLR (peptide)	40
ISSVTVV (peptide)	37
YEGERGA (peptide)	39
QIAHLEY (peptide)	50
HPFPRFD (peptide)	45
FEHMAVT (peptide)	42
GLWRHTM (peptide)	40
HHPLFID (peptide)	39
SNALSYF (peptide)	41

The substances below were run against Human Myelin PLP (human) (UniProt P60201) (assay: phage display, NGS count). Conditions: not given.
Human Myelin PLP (human), sequence (P60201 2-277 limits assumed): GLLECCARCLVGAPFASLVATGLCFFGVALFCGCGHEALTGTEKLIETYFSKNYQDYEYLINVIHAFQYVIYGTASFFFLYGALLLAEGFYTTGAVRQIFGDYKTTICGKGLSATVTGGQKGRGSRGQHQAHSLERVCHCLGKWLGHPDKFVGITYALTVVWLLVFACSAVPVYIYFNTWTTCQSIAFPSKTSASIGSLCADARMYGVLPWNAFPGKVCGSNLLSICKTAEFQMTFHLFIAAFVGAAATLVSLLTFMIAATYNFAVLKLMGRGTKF

Count	Substance
44	LALYARM (peptide)
34	SMWSQFR (peptide)
42	RHNVEFS (peptide)
33	EKPSWTR (peptide)
50	YTPMGTG (peptide)
35	YPKLWTY (peptide)
66	GLIRHYT (peptide)
40	LTHHFAP (peptide)
34	NPNWRTI (peptide)
52	RFELPAP (peptide)
33	DTSRTME (peptide)
37	NPSHHPR (peptide)
34	FKMPIPT (peptide)
62	TNPWKPH (peptide)

The next lines start with the substance.

Substance	Count
LRFQIPP (peptide)	44
HQGSRTY (peptide)	53
ATLKPYR (peptide)	68

The substances below were run against Human Myelin PLP (human) (UniProt P60201) (assay: phage display R3, NGS count). Conditions: not given.

Count	Substance
44	LALYARM (peptide)
34	SMWSQFR (peptide)
42	RHNVEFS (peptide)
62	MTPHTSC (peptide)
33	EKPSWTR (peptide)
50	YTPMGTG (peptide)
35	YPKLWTY (peptide)
66	GLIRHYT (peptide)
40	LTHHFAP (peptide)
34	NPNWRTI (peptide)
52	RFELPAP (peptide)
33	DTSRTME (peptide)
37	NPSHHPR (peptide)
47	GPFLFTV (peptide)
34	FKMPIPT (peptide)
62	TNPWKPH (peptide)
42	FPVVTRN (peptide)

Further lines, the substance ahead of its results:

Substance	Count
LRFQIPP (peptide)	44
HQGSRTY (peptide)	53
ATLKPYR (peptide)	68

These substances were tested on Human Myelin PLP (assay: Phage display library screening (Example 2, Python script analysis), binding to Human Myelin PLP). Conditions: combined unique sequence count, Python/R script analysis.
Method: (§1) Phage display library screens were used to identify peptides that bind to target proteins (including specific laminin trimers) that are expressed in human nerves, as described in Table 3. These screens were also carried out to identify peptides that could bind selectively to nerves versus muscle. Such peptides could therefore be useful for systemic in-vivo labeling of nerves during fluorescence assisted surgery. Specifically, m 13 phage libraries expressing 7 or 12 random amino acid peptides, or a cyclic peptide CX7C, on the N-terminus of the minor coat protein pIII (New England Biolabs; NEB) were processed through multiple rounds of selection for binding to target proteins expressed in nerves, or to excised human nerves, nerve extracts, or muscle, as described further below.
(§2) For screening against the specified target proteins in Table 1, including LN211, LN411, LN421, and LN521, the phage library was processed by up to 4 binding and wash cycles. For selection, phage libraries were incubated for up to 24 hours at 4° C. in 96 well plates that had been coated with one of the target proteins. Plates were then washed with PBS and phage were eluted using 0.2M glycine pH 2.0. Phage supernatants where then neutralized with Tris pH 9.0 prior to plating on TGI bacteria and LB agar plates. Colonies were counted to determine titer followed by DNA preparation of pools of phage and NextGen sequencing. After rounds of selection, phage were pooled and amplified for iterative selection. Phage that were bound at each round were sequenced. NextGen sequencing of pools after 2, 3 and 4 rounds of selection was used to isolate candidate sequences that were analyzed further to identify those that specifically bound each unique target protein.
(§3) Python Script Analysis: For all NEB sequence datasets, a python script was used to translate, trim, and filter the peptide sequences. The script translated the nucleotide sequences, translating amber codons as glutamine in peptide sequences, and then trimmed the end sequences that come from the vector. Secondly, the script combined the unique counts of trimmed peptides with identical sequences. […] Another python script was used to group peptides from different assays according to protein target (Myelin Protein Zero, Myelin Proteolipid Protein, Myelin Basic Protein, and Nidogen-2) and also combine the unique sequence counts for each peptide. An R script was written to merge the peptide sequences from different data files and determine peptides specific for each protein target but absent from different protein binding datasets. Peptide sequences were ranked by unique sequence count.

Substance	Count
AQASSAR (Myelin PLP-binding peptide)	27
LPHRLNP (Myelin PLP-binding peptide)	27
AVVAMNK (Myelin PLP-binding peptide)	28
TFPERLR (Myelin PLP-binding peptide)	31
QPNMLKP (Myelin PLP-binding peptide)	33
KGVIPAT (Myelin PLP-binding peptide)	27
WNTADRL (Myelin PLP-binding peptide)	34
HKAPLGT (Myelin PLP-binding peptide)	29
IHHLESS (Myelin PLP-binding peptide)	32
YSQAISA (Myelin PLP-binding peptide)	27
LHQTYRP (Myelin PLP-binding peptide)	27
TMPIKAM (Myelin PLP-binding peptide)	27
VRTSMNH (Myelin PLP-binding peptide)	28

What follows are substances tested on Human Nidogen-2 (assay: Phage display library screening (Example 2, Python script analysis), binding to Human Nidogen-2). Conditions: combined unique sequence count, Python/R script analysis.
Method: as §1, §2, §3

Substance	Count
CRSPHEPMC (Nidogen-2-binding peptide)	6
GLRTMEP (Nidogen-2-binding peptide)	7
TPWLPTI (Nidogen-2-binding peptide)	7
ATYNMSQ (Nidogen-2-binding peptide)	7
CIHHKGVLC (Nidogen-2-binding peptide)	6
QMDAKHM (Nidogen-2-binding peptide)	6
CSFKMNQKC (Nidogen-2-binding peptide)	8
LHITPEV (Nidogen-2-binding peptide)	6
ALYLPGR (Nidogen-2-binding peptide)	7
LVHPFHG (Nidogen-2-binding peptide)	8
CKDGHIRHC (Nidogen-2-binding peptide)	6
NILSQVN (Nidogen-2-binding peptide)	6
CVDKMASVC (Nidogen-2-binding peptide)	6
HSRLPTP (Nidogen-2-binding peptide)	13
ARMAFSL (Nidogen-2-binding peptide)	7
TIASLLV (Nidogen-2-binding peptide)	6
WLAAGSQ (Nidogen-2-binding peptide)	6
QTLRPKQ (Nidogen-2-binding peptide)	6
LSIRGLT (Nidogen-2-binding peptide)	6
QLLESRT (Nidogen-2-binding peptide)	6
EAMMHRN (Nidogen-2-binding peptide)	6
YNHTMMY (Nidogen-2-binding peptide)	7
CSSSAPRIC (Nidogen-2-binding peptide)	9
CYSAPTKSC (Nidogen-2-binding peptide)	6
CNLATSLQC (Nidogen-2-binding peptide)	6
